Experimental data: article PMC3630358

Biological target: TraF/VirB10 C-terminal domain starting at N161 (elastase-cleaved, C-terminal Strep-tag) (Escherichia coli (plasmid pKM101)) (UniProt Q46705)
Experiment: cryo-EM structure

stoichiometry N: 14
Substance: TraF/VirB10 C-terminal domain starting at N161 (elastase-cleaved, C-terminal Strep-tag) (from UniProt Q46705 161-386) (domain or fragment)
